Data on three molecules can be found in patent publication US20230114801A1 (SYSTIMMUNE, published 2023).

The chains are these.
T1: CD19 (UniProt P15391 20-291, limits assumed)
T1 sequence (looked up): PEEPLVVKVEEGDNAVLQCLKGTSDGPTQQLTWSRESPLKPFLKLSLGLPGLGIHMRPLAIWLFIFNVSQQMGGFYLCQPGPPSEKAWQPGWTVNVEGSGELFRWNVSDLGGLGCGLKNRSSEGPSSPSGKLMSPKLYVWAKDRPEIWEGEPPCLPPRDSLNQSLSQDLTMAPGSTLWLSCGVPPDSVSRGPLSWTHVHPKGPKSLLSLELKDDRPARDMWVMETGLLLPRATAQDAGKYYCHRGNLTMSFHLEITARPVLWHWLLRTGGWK

B1: SI-49PM1 (other)
chain 1: FLNSLFNQEVQIPLTESYCGPCPKNWICYKNNCYQFFDESKNWYESQASCMSQNASLLKVYSKEDQDLLKLVKSYHWMGLVHIPTNGSWQWEDGSILSPNLLTIIEMQKGDCALYASSFKGYIENCSTPNTYICMQRTVGGGGSGGGGSGGGGSGGGGSFLNSLFNQEVQIPLTESYCGPCPKNWICYKNNCYQFFDESKNWYESQASCMSQNASLLKVYSKEDQDLLKLVKSYHWMGLVHIPTNGSWQWEDGSILSPNLLTIIEMQKGDCALYASSFKGYIENCSTPNTYICMQRTVVDGGGGSGGGGSEVQLVESGGGLVQPGGSLRLSCAASGFTISTNAMSWVRQAPGKGLEWIGVITGRDITYYASWAKGRFTISRDNSKNTLYLQMNSLRAEDTAVYYCARDGGSSAITSNNIWGQGTLVTVSSASTKGPSVFPLAPSSKSTSGGTAALGCLVKDYFPEPVTVSWNSGALTSGVHTFPAVLQSSGLYSLSSVVTVPSSSLGTQTYICNVNHKPSNTKVDKRVEPKSCDKTHTCPPCPAPEAAGGPSVFLFPPKPKDTLMISRTPEVTCVVVDVSHEDPEVKFNWYVDGVEVHNAKTKPREEQYASTYRVVSVLTVLHQDWLNGKEYKCAVSNKALPAPIEKTISKAKGQPREPQVCTLPPSRDELTKNQVSLSCAVKGFYPSDIAVEWESNGQPENNYKTTPPVLDSDGSFFLVSKLTVDKSRWQQGNVFSCSVMHEALHNHYTQKSLSLSPGGGGGSGGGGSRSLVESGGGLVQPGGSLRLSCTASGFTISSYHMQWVRQAPGKCLEYIGTISSGGNVYYASSARGRFTISRPSSKNTVDLQMNSLRAEDTAVYYCARDSGYSDPMWGQGTLVTVSSGGGGSGGGGSGGGGSGGGGSDVVMTQSPSSVSASVGDRVTITCQASQNIRTYLSWYQQKPGKAPKLLIYAAANLASGVPSRFSGSGSGTDFTLTISDLEPGDAATYYCQSTYLGTDYVGGAFGCGTKVEIK
chain 2: ENVLTQSPASLSASPGERVTITCSASSSVSYMHWYQQKPGQAPKLWIYDTSKLASGVPSRFSGSGSGNDHTLTISSMEPEDFATYYCFQGSVYPFTFGQGTKVTVLGGGGSGGGGSGGGGSGGGGSQVTLKESGPGLVQPGQTLSLTCAFSGFSLSTSGMGVGWIRQPPGKGLEWLAHIWWDDDKRYNPALKSRLTISKDTSKNQVYLQMNSLDAEDTAVYYCARMELWSYYFDYWGQGTLVTVSSGGGGSGGGGSDVVMTQSPSTLSASVGDRVTINCQASESISSWLAWYQQKPGKAPKLLIYEASKLASGVPSRFSGSGSGTEFTLTISSLQPDDFATYYCQGYFYFISRTYVNSFGGGTKVEIKRTVAAPSVFIFPPSDEQLKSGTASVVCLLNNFYPREAKVQWKVDNALQSGNSQESVTEQDSKDSTYSLSSTLTLSKADYEKHKVYACEVTHQGLSSPVTKSFNRGECGGDKTHTCPPCPAPEAAGGPSVFLFPPKPKDTLMISRTPEVTCVVVDVSHEDPEVKFNWYVDGVEVHNAKTKPREEQYNSTYRVVSVLTVLHQDWLNGKEYKCAVSNKALPAPIEKTISKAKGQPREPQVYTLPPSRDELTKNQVSLWCLVKGFYPSDIAVEWESNGQPENNYKTTPPVLDSDGSFFLYSKLTVDKSRWQQGNVFSCSVMHEALHNRFTQKSLSLSPGGGGGSGGGGSDIQMTQSPSTLSASVGDRVTITCQASQSISSHLNWYQQKPGKAPKLLIYKASTLASGVPSRFSGSGSGTEFTLTISSLQPDDFATYYCQQGYSWGNVDNVFGGGTKVTVLGGGGSGGGGSGGGGSGGGGSEVQLLESGGGLVQPGGSLSLSCAASGFSFSSGYDMCWVRQAPGKGLEWIACIAAGSAGITYDANWAKGRFTISRDNSKNTLYLQMNSLRAEDTAVYYCARSAFSFDYAMDLWGQGTLVTVSS
notes: control penta-miniGNC; D1 NKG2D (tandem dimer), D2 αCD19, D3 αCD3 (Fab), D4 α4-1BB, D5 αPD-L1
B2: human CD3 (receptor)
chain 1: DGNEEMGGITQTPYKVSISGTTVILTCPQYPGSEILWQHNDKNIGGDEDDKNIGSDEDHLSLKEFSELEQSGYYVCYPRGSKPEDANFYLYLRARVCENCMEMD
chain 2: FKIPIEELEDRVFVNCNTSITWVEGTVGTLLSDITRLDLGKRILDPRGIYRCNGTDIYKDKESTVQVHYRMCQSCVELDPATVA
notes: also called His-tagged human CD3; human CD3 (Acro CDD-H52W1)
B3: SI-75P5 (other)
chain 1: EVQLQESGGGLVQAGDSLSLSCLVSGRSFNSYTMGWFRQAPGKEREFVAAILWSGPTTYYADSVKGRFTISRDNAKNTVYLQMNSLKPEDTAVYYCAAALGVLVLAPGNVYSYWGQGTQVTVSSGGGGSGGGGSEVQLVESGGGLVQPGGSLRLSCAASGFTISTNAMSWVRQAPGKGLEWIGVITGRDITYYASWAKGRFTISRDNSKNTLYLQMNSLRAEDTAVYYCARDGGSSAITSNNIWGQGTLVTVSSASTKGPSVFPLAPSSKSTSGGTAALGCLVKDYFPEPVTVSWNSGALTSGVHTFPAVLQSSGLYSLSSVVTVPSSSLGTQTYICNVNHKPSNTKVDKRVEPKSCDKTHTCPPCPAPEAAGGPSVFLFPPKPKDTLMISRTPEVTCVVVDVSHEDPEVKFNWYVDGVEVHNAKTKPREEQYNSTYRVVSVLTVLHQDWLNGKEYKCAVSNKALPAPIEKTISKAKGQPREPQVYTLPPSRDELTKNQVSLSCAVKGFYPSDIAVEWESNGQPENNYKTTPPVLDSDGSFFLVSKLTVDKSRWQQGNVFSCSVMHEALHNHYTQKSLSLSPGGGGGSGGGGSDVVMTQSPSSVSASVGDRVTITCQASQNIRTYLSWYQQKPGKAPKLLIYAAANLASGVPSRFSGSGSGTDFTLTISDLEPGDAATYYCQSTYLGTDYVGGAFGGGTKLTVLGGGGSGGGGSGGGGSGGGGSEVQLVESGGGLVQPGGSLRLSCTASGFTISSYHMQWVRQAPGKGLEYIGTISSGGNVYYASSARGRFTISRPSSKNTVDLQMNSLRAEDTAVYYCARDSGYSDPMWGQGTLVTVSS
chain 2: QVQLVQSGGGLVQAGGSLSLSCAFSGRTFSMYTMGWFRQAPGKEREFVAANRGRGLSPDIADSVNGRFTISRDNAKNTLYLQMDSLKPEDTAVYYCAADLQYGSSWPQRSSAEYDYWGQGTTVTVSSGGGGSGGGGSDVVMTQSPSTLSASVGDRVTINCQASESISSWLAWYQQKPGKAPKLLIYEASKLASGVPSRFSGSGSGTEFTLTISSLQPDDFATYYCQGYFYFISRTYVNSFGGGTKVEIKRTVAAPSVFIFPPSDEQLKSGTASVVCLLNNFYPREAKVQWKVDNALQSGNSQESVTEQDSKDSTYSLSSTLTLSKADYEKHKVYACEVTHQGLSSPVTKSFNRGECGGDKTHTCPPCPAPEAAGGPSVFLFPPKPKDTLMISRTPEVTCVVVDVSHEDPEVKFNWYVDGVEVHNAKTKPREEQYNSTYRVVSVLTVLHQDWLNGKEYKCAVSNKALPAPIEKTISKAKGQPREPQVYTLPPSRDELTKNQVSLWCLVKGFYPSDIAVEWESNGQPENNYKTTPPVLDSDGSFFLYSKLTVDKSRWQQGNVFSCSVMHEALHNRFTQKSLSLSPGGGGGSGGGGSDIQMTQSPSTLSASVGDRVTITCQASQSISSHLNWYQQKPGKAPKLLIYKASTLASGVPSRFSGSGSGTEFTLTISSLQPDDFATYYCQQGYSWGNVDNVFGGGTKVTVLGGGGSGGGGSGGGGSGGGGSEVQLLESGGGLVQPGGSLSLSCAASGFSFSSGYDMCWVRQAPGKGLEWIACIAAGSAGITYDANWAKGRFTISRDNSKNTLYLQMNSLRAEDTAVYYCARSAFSFDYAMDLWGQGTLVTVSS
notes: penta-miniGNC; D1 αEGFR VHH, D2 αHER3 VHH, D3 αCD3 (Fab), D4 α4-1BB, D5 αPD-L1

The target in one experiment is NKG2D ligand. The experiment can be described thus: BLI (Octet); conditions and ligand not stated. On the technique in general: In BLI a coated tip is dipped into the sample, and binding shifts an interference pattern.
The target in experiment [1] is T2, human PD-L1 (human, UniProt Q9NZQ7 19-238).
T2 construct: Soluble antigen in Octet; bought; also called human PD-L1 (Acro PD1-H5229)
The experiment can be described thus: BLI (Octet); conditions not stated.

The target of experiment [2] is T3, human 4-1BB (human, UniProt Q07011 24-186, limits assumed).
T3 construct: Soluble antigen in Octet; construct not described
The experiment can be described thus: BLI (Octet); conditions not stated.

The next experiment concerns the target T1, CD19. The experiment can be described thus: BLI (Octet); conditions not stated.
Experiment [3] concerns the target B2. The experiment can be described thus: BLI (Octet); conditions not stated.
The target in the next experiment is T4, SI-75P4.
T4 construct: penta-miniGNC; D1 αEGFR, D2 αHER3, D3 αCD3 (Fab), D4 41BBL (ligand of the 4-1BB receptor), D5 αPD-L1
T4 sequence (chain, as listed by the source): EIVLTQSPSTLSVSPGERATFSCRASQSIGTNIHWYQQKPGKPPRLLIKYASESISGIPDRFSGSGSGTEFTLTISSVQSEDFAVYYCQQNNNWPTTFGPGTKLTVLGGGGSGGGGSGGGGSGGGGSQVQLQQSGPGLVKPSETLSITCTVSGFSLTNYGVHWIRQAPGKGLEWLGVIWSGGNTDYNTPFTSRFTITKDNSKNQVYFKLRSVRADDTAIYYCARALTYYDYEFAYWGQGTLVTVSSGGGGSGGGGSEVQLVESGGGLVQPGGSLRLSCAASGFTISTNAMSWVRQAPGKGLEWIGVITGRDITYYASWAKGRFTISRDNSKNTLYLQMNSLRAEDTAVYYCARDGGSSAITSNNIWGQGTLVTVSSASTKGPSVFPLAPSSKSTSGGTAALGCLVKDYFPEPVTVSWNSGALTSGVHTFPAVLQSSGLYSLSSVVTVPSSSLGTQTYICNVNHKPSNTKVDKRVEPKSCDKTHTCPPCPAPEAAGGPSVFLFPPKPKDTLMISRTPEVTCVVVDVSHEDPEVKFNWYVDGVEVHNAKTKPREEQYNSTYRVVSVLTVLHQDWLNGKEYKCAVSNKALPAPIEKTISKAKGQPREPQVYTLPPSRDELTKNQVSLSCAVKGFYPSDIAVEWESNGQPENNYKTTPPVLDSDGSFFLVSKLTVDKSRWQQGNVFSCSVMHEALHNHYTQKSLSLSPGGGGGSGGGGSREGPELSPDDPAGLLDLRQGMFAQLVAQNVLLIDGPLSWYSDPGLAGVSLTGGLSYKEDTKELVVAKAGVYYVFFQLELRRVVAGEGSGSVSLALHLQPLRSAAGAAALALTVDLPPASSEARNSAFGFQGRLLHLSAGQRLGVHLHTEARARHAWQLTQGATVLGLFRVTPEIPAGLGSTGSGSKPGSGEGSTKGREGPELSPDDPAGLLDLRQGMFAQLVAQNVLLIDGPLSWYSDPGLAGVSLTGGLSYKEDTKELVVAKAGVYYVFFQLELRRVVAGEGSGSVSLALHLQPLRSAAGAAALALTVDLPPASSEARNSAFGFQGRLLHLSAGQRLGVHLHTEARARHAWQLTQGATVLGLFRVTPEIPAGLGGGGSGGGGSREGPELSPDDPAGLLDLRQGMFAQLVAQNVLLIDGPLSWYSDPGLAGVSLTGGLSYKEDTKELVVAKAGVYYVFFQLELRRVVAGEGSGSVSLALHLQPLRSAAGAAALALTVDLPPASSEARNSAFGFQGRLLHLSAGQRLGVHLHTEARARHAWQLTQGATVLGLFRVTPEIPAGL
The experiment can be described thus: BLI (Octet), binder on AHC sensor, 100 nM human antigen, 1:1 fit.

For another experiment, the target named is T5, SI-49P9.
T5 construct: penta-miniGNC; D1 αCD3, D2 αCD19, D3 NKG2D receptor dimer, D4 41BBL, D5 αPD-L1
T5 sequence (chain, as listed by the source, chain 1 of 2): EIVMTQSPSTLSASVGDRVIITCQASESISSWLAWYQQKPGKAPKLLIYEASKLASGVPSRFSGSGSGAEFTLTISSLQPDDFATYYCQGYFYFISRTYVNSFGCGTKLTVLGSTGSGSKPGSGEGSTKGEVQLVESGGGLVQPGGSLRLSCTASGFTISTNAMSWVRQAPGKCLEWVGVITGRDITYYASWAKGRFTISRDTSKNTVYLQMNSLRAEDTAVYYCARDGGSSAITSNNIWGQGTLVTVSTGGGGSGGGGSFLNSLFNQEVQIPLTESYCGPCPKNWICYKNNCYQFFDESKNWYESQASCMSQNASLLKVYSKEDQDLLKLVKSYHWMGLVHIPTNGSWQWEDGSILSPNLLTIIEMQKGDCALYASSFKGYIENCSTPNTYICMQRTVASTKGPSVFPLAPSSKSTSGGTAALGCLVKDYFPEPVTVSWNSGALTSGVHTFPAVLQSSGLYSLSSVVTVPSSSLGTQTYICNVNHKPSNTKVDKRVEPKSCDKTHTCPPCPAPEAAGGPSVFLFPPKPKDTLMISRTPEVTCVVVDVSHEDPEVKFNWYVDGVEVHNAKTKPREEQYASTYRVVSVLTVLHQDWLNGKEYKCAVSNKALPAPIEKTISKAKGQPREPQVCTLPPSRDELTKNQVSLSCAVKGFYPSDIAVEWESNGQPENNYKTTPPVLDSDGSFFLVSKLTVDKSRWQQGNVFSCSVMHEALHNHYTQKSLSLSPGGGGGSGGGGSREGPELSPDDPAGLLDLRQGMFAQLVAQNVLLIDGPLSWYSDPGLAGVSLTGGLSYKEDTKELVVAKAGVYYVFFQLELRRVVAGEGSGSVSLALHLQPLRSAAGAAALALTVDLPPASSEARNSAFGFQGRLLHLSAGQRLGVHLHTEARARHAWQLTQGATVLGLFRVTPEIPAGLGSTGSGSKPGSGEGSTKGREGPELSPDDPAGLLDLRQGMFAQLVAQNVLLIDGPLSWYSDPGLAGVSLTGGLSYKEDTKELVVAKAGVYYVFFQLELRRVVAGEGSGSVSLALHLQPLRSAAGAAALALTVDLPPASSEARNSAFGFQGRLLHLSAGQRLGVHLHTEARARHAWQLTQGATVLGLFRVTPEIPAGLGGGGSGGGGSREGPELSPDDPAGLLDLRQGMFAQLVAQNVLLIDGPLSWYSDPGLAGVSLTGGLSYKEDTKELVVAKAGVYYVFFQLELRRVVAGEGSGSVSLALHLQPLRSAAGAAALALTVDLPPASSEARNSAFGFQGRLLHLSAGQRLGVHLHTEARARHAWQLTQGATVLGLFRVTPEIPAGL
T5 sequence (chain, as listed by the source, chain 2 of 2): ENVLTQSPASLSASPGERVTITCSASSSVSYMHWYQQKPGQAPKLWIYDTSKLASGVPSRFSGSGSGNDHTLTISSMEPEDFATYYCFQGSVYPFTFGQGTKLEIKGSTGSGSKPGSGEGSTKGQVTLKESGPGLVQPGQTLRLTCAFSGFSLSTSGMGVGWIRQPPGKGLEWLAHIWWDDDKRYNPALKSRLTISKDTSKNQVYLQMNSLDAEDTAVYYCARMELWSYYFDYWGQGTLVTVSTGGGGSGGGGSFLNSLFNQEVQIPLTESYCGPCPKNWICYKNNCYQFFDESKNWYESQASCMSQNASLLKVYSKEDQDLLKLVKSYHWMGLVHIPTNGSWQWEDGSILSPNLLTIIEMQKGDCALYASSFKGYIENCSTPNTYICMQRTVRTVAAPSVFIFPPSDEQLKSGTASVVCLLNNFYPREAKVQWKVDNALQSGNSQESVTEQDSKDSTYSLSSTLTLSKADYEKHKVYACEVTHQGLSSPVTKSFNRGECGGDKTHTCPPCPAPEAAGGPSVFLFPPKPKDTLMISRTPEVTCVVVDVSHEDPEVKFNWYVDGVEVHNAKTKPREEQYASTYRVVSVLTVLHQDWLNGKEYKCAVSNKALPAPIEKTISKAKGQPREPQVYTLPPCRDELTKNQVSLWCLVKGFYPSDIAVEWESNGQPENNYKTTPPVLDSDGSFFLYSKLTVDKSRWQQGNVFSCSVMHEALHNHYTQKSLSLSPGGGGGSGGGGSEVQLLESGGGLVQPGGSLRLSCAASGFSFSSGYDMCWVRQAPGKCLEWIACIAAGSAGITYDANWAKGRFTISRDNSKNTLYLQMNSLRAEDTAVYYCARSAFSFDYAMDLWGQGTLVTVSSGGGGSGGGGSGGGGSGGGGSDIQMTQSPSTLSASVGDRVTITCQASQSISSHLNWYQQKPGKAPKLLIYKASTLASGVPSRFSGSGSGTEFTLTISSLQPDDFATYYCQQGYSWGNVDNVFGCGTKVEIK
The experiment can be described thus: BLI (Octet); conditions not stated.

Experiment [4] deals with T2, human PD-L1. The experiment can be described thus: BLI (Octet), binder on AHC sensor, 20 nM human PD-L1, 1:1 fit.
For experiment [5], the target named is T3, human 4-1BB. The experiment can be described thus: BLI (Octet), binder on AHC sensor, 400 nM human 4-1BB, 1:1 fit.
For a further experiment, the target named is T6, human EGFR (human, UniProt P00533 25-645, limits assumed).
T6 construct: Soluble antigen in Octet; construct not described
The experiment can be described thus: BLI (Octet), binder on AHC sensor, 200 nM human EGFR, 1:1 fit.

In experiment [6] the target is B2. The experiment can be described thus: BLI (Octet), binder on AHC sensor, 100 nM human CD3, 1:1 fit.

For B1, the Kd (usually the constant that tells how readily two partners part at equilibrium) was 24.5 nM with NKG2D ligand; 2.23 nM in the experiment with human PD-L1 [1]; 2.74 nM with human 4-1BB [2]; 5.5 nM with CD19; 30.2 nM with human CD3 [3].
With B2, the dissociation constant Kd with SI-75P4 was determined as 22.7 nM; with SI-49P9, 29.8 nM.
Turning to B3, the Kd with human PD-L1 [4] amounted to 3.25 nM; in the experiment with human 4-1BB [5] it was 23.3 nM; with human EGFR, 23.5 nM; in the experiment with human CD3 [6], 26.1 nM.
